{"source": "patent US12356911B2", "about": "“Group of UDP-glycosyltransferase for catalyzing carbohydrate chain elongation and application thereof” (GSYNBIOT (SHANGHAI) CO., LTD, priority 2017, dated 2025)", "assay_type_in_all_cases": "biochemical", "key": {"[1]": {"assay": "In vitro transglycosylation at C-6, Rg1 as glycosyl acceptor, UDP-xylose as donor", "details": "crude enzyme (E. coli lysate supernatant); TLC and HPLC, FIG. 7-9"}, "[2]": {"assay": "In vitro transglycosylation at C-20, Rd as glycosyl acceptor, UDP-glucose as donor", "details": "crude enzyme (E. coli lysate supernatant); TLC/HPLC, FIG. 2, 3, 11", "source_text": "(§1) Cell lysate of recombinant E. coli with empty vector pET28a was used as a control."}, "[3]": {"assay": "In vitro transglycosylation at C-3, Rh2 as glycosyl acceptor, UDP-glucose as donor", "details": "crude enzyme (E. coli lysate supernatant); TLC, FIG. 13, FIG. 15", "source_text": "as §1"}, "[4]": {"assay": "In vitro transglycosylation at C-20, CK as glycosyl acceptor, UDP-glucose as donor", "details": "crude enzyme (E. coli lysate supernatant); TLC/HPLC, FIG. 2, 3, 12, 16", "source_text": "as §1\nAs shown in FIG. 16: Protopanaxadiol Ginsenoside CK is used as a glycosyl acceptor, and UDP-glucose is used as a glycosyl donor."}}, "data": [{"molecule": "GT29-4: Ginseng UDP-glycosyltransferase, 446 amino acids, SEQ ID NO: 12 (protein, misc_feature - GT29-4; Panax ginseng) MDNQEGRISIALLPFLAHGHISPFFELAKHLSKRNCNIFLCSTPINLSSIKNRISDKDSSASIKLVELHLPSSPDLPPHYHTTNGLPSHLMVPLRNAFETAAPTFSEILKTLNPDLLIYDFNPSWAPEIASSHNIPAVCFIIGGAASFSMSLHSFKNPGEKYPFLDFDDNSNITPEPPSADNMKLLLDFMTCFERSCDIILIKSFRELEGKYFDFYSTLSDKTLVPVGPLVQDPMGHNEDPKTEQFINWLDKRAESTVVFVCFGSEYFLSNEELEEVAIGLEISMVNFIWAVRLIEGEKKGVLPEGFVQRVGDRGLVVEGWAPQARILGHSSTGGFVSHCGWSSITESMKFGVPVIAMARHLDQPLNGKLAAEVGVGMEVVRDENGKYKREGIAEVIRKVVVEKSGEVMRRKARELSEKMKEKGEEEIDRAVEELVQICKKKKDAQ", "values": [{"measurement": "product formation from Rg1 and UDP-xylose (notoginsenoside R1)", "setting": "[1]", "result": "can catalyze the formation of Notoginsenoside RI"}]}, {"molecule": "PNUGT29-3: Panax notoginseng glycosyltransferase, 447 amino acids, SEQ ID NO: 43 (protein) MDIEKGRISIVMLPFLAHGHISPFFELAKHLSKRNCNIFLCSTPINLSSIKNRVSDKDSSASIKLVELHLPSSPDLPPQYHTTNGLPSHLMVPLKNAFETVGPTFSEILKTLDPDLLIYDFNPSWAPEIALSHNIPAVYFLTSAAATSSVALRALKNPGEKYPFPDFYDNSNITPEPPSADKMKLFHDFVACFKRSCDIILIKSFRELEGKYIDLLSTLSKKTLVPVGPLVQDPLGHDEDPKTGHLINWLDKRAESTVVFVCFGSEYFPSNEELEEVAIGLEISMVNFILAVRFLEGEKKGVLPEGFVQRVGDRGLVVEGWAPQARILGHSSTGGFVSHCGWSSIMESVKFGVPVIAMARHLDQPLNAKLAAEVGVGMEVVRDENGKYKREAIAEVIRKVVMEKNGEVIRRKARELSEKMKETGEQEIGRAVEELVQICKMKKDAQY", "values": [{"measurement": "product formation from Rd and UDP-glucose (Rb1)", "setting": "[2]", "result": "can catalyze the extension of a glucosyl at the C-20 glycosyl of Rd to generate Rb1"}, {"measurement": "product formation from Rh2 and UDP-glucose (Rg3)", "setting": "[3]", "result": "can catalyze the extension of a glucosyl at the C-3 glycosyl of Rh2 to generate Rg3"}, {"measurement": "product formation from CK and UDP-glucose (Gypenoside LXXV)", "setting": "[4]", "result": "can catalyze the extension of a glucosyl at the C-20 glycosyl to generate Gypenoside LXXV"}]}, {"molecule": "PNUGT29-4: Panax notoginseng glycosyltransferase, 447 amino acids, SEQ ID NO: 45 (protein, Panax notoginseng) MDIEKGRISIVMLPFLAHGHISPFFELAKHLSKRNCNIFLCSTPINLSSIKNRVSDKDSSASIKLVELHLPSSPDLPPQYHTTNGLPSHLMVPLKNAFETVGPTFSEILKTLDPDLLIYDFNPSWAPEIALSHNIPAVYFLTSAAATSSVALRALKNPGEKYPFPDFYDNSNITPEPPSADKMKLFHDFVACFKRSCDIILIKSFRELEGKYIDLLSTLSKKTLVPVGPLVQDPLGHDEDPKTGHLINWLDKRAESTVVFVCFGSEYFPSNEELEEVAIGLEISMVNFILAVRFLEGEKKGVLPEGFVQRVGDRGLVVEGWAPQARILGHSSTGGFVSHCGWSSIMESVKFGVPVIAMARHLDQPLNAKLAAEVGVGMEVVRDENGKYTREAIAEVIRKVVMEKNGEVIRRKARELSDKMKEKGEQEIGRAVEELVQICKMKKDAQY", "values": [{"measurement": "product formation from Rd and UDP-glucose (Rb1)", "setting": "[2]", "result": "can catalyze the extension of a glucosyl at the C-20 glycosyl of Rd to generate Rb1"}, {"measurement": "product formation from Rh2 and UDP-glucose (Rg3)", "setting": "[3]", "result": "can catalyze the extension of a glucosyl at the C-3 glycosyl of Rh2 to generate Rg3"}, {"measurement": "product formation from CK and UDP-glucose (Gypenoside LXXV)", "setting": "[4]", "result": "can catalyze the extension of a glucosyl at the C-20 glycosyl to generate Gypenoside LXXV"}]}, {"molecule": "PNUGT29-5: Panax notoginseng glycosyltransferase, 447 amino acids, SEQ ID NO: 47 (protein, Panax notoginseng) MDIEKGRISIVMLPFLAHGHISPFFELAKHLSKRNCNIFLCSTPINLSSIKNRVSDKDSSASIKLVELHLPSSPDLPPQYHTTNGLPSHLMVPLKNAFETVGPTFSEILKTLDPDLLIYDFNPSWAPEIALSHNIPAVYFLTSAAATSSVALRALKNPGEKYPFPDFYDNSNITPEPPSADKMKLFHDFVACFKRSCDIILIKSFRELEGKYIDLLSTLSKKTLVPVGPLVQDPLGHDEDPKTGHLINWLDKRAESTVVFVCFGSEYFPSNEELEEVAIGLEISMVNFILAVRFLEGEKKGVLPEGFVQRVGDRGLVVEGWAPQARILGHSSTGGFVSHCGWSSIMESVKFGVPVIAMARHLDQPLNAKLAAEVGVGMEVVRDENGKYTREAIAEVIRKVVMEKNGEVIRRKARELSDKMKEKGEQEIGRAVEELVQICKMMKDAQY", "values": [{"measurement": "product formation from Rd and UDP-glucose (Rb1)", "setting": "[2]", "result": "can catalyze the extension of a glucosyl at the C-20 glycosyl of Rd to generate Rb1"}, {"measurement": "product formation from Rh2 and UDP-glucose (Rg3)", "setting": "[3]", "result": "can catalyze the extension of a glucosyl at the C-3 glycosyl of Rh2 to generate Rg3"}, {"measurement": "product formation from CK and UDP-glucose (Gypenoside LXXV)", "setting": "[4]", "result": "can catalyze the extension of a glucosyl at the C-20 glycosyl to generate Gypenoside LXXV"}]}, {"molecule": "PNUGT29-6: Panax notoginseng glycosyltransferase, 447 amino acids, SEQ ID NO: 49 (protein, Panax notoginseng) MDIEKGRISIVMLPFLAHGHISPFFELAKHLSKRNCNIFLCSTPINLSSIKNRVSGKDSSASIKLVELHLPSSPDLPPQYHTTNGLPSHLMVPLKNAFETVGPTFSEILKTLDPDLLIYDFNPSWAPEIALSHNIPAVYFLTSAAATSSVALRALKNPGEKYPFPDFYDNSNITPEPPSADKMKLFHDFVACFKRSCDIILIKSFRELEGKYIDLLSTLSKKTLVPVGPLVQDPLGHDEDPKTGHLINWLDKRAESTVVFVCFGSEYFPSNEELEEVAIGLEISMVNFILAVRFLEGEKKGVLPEGFVQRVGDRGLVVEGWAPQARILGHSSTGGFVSHCGWSSIMESVKFGVPVIAMARHLDQPLNAKLAAEVGVGMEVVRDENGKYTREAIAEVIRKVVMEKNGEVIRRKARELSDKMKEKGEQEIGRAVEELVQICKMKKDAQY", "values": [{"measurement": "product formation from Rd and UDP-glucose (Rb1)", "setting": "[2]", "result": "can catalyze the extension of a glucosyl at the C-20 glycosyl of Rd to generate Rb1"}, {"measurement": "product formation from Rh2 and UDP-glucose (Rg3)", "setting": "[3]", "result": "can catalyze the extension of a glucosyl at the C-3 glycosyl of Rh2 to generate Rg3"}, {"measurement": "product formation from CK and UDP-glucose (Gypenoside LXXV)", "setting": "[4]", "result": "can catalyze the extension of a glucosyl at the C-20 glycosyl to generate Gypenoside LXXV"}]}, {"molecule": "PNUGT29-7: Panax notoginseng glycosyltransferase, 447 amino acids, SEQ ID NO: 51 (protein, Panax notoginseng) MDIEKGRISIVMLPFLAHGHISPFFELAKHLSKRNCNIFLCSTPINLSSIKNRVSDKDSSASIKLVELHLPSSPDLPPQYHTTNGLPSHLMVPLKNAFETVGPTFSEILKTLDPDLFIYDFNPSWAPEIALSHNIPAVYFLTSAAATSSVALRALKNPGEKYPFPDFYDNSNITPEPPSADKMKLFHDFVACFKRSCDIILIKSFRELEGKYIDLLSTLSKKTLVPVGPLVQDPLGHDEDPKTGHLINWLDKRAESTVVFVCFGSEYFPSNEELEEVAIGLEISMVNFILAVRFLEGEKKGVLPEGFVQRVGDRGLVVEGWAPQARILGHSSTGGFVSHCGWSSIMESVKFGVPVIAMARHLDQPLNAKLAAEVGVGMEVVRDENGKYTREAIAEVIRKVVMEKNGEVIRRKARELSDKMKEKGEQEIGRAVEELVQICKMKKDAQY", "values": [{"measurement": "product formation from Rd and UDP-glucose (Rb1)", "setting": "[2]", "result": "can catalyze the extension of a glucosyl at the C-20 glycosyl of Rd to generate Rb1"}, {"measurement": "product formation from Rh2 and UDP-glucose (Rg3)", "setting": "[3]", "result": "can catalyze the extension of a glucosyl at the C-3 glycosyl of Rh2 to generate Rg3"}, {"measurement": "product formation from CK and UDP-glucose (Gypenoside LXXV)", "setting": "[4]", "result": "can catalyze the extension of a glucosyl at the C-20 glycosyl to generate Gypenoside LXXV"}]}, {"molecule": "PNUGT29-8: Panax notoginseng glycosyltransferase, 447 amino acids, SEQ ID NO: 53 (protein, Panax notoginseng) MDIEKGRISIVMLPFLAHGHISPFFELAKHLSKRNCNIFLCSTPINLSSIKNRVSDKDSSASIKLVELHLPSSPDLPPQYHTTNGLPSHLMVPLKNAFETVGPTFSEILKTLDPDLLIYDFNPSWAPEIALSHNIPAVYFLTSAAATSSVALRALKNPGEKYPFPDFYDNSNITPEPPSADKMKLFHDFVACFKRSCDIILIKSFRELEGKYIDLLSTLSKKTLVPVGPLVQDPLGHDEDPKTGHLINWLDKRAESTVVFVCFGSEYFPSNEELEEVAIGLEISMVNFILAVRFLEGEKKGVLPEGFVQRVGDRGLVVEGWAPQARILGHSSTGGFVSHCGWSSIMESVKFGVPVIAMARHLDQPLNAKLAAGVGVGMEVVRDENGKYKREAIAEVIRKVVMEKNGEVIRRKARELSEKMKETGEQEIGRAVEELVQICKMKKDAQY", "values": [{"measurement": "product formation from Rd and UDP-glucose (Rb1)", "setting": "[2]", "result": "can catalyze the extension of a glucosyl at the C-20 glycosyl of Rd to generate Rb1"}, {"measurement": "product formation from Rh2 and UDP-glucose (Rg3)", "setting": "[3]", "result": "can catalyze the extension of a glucosyl at the C-3 glycosyl of Rh2 to generate Rg3"}, {"measurement": "product formation from CK and UDP-glucose (Gypenoside LXXV)", "setting": "[4]", "result": "can catalyze the extension of a glucosyl at the C-20 glycosyl to generate Gypenoside LXXV"}]}, {"molecule": "PNUGT29-9: Panax notoginseng glycosyltransferase, 447 amino acids, SEQ ID NO: 55 (protein, Panax notoginseng) MDIEKGRISIVMLPFLAHGHISPFLELAKHLSKRNCNIFLCSTPINLSSIKNRVSDKDSSASIKLVELHLPSSPDLPPQYHTTNGLPSHLMVPLKNAFETVGPTFSEILKTLDPDLLIYDFNPSWAPEIALSHNIPAVYFLTSAAATSSVALRALKNPGEKYPFPDFYDNSNITPEPPSADKMKLFHDFVACFKRSCDIILIKSFRELEGKYIDLLSTLSKKTLVPVGPLVQDPLGHDEDPKTGHLINWLDKRAESTVVFVCFGSEYFPSNEELEEVAIGLEISMVNFILAVRFLEGEKKGVLPEGFVQRVGDRGLVVEGWAPQARILGHSSTGGFVSHCGWSSIMESVKFGVPVIAMARHLDQPLNAKLAAEVGVGMEVVRDENGKYKREAIAEVIRKVVMEKNGEVIRRKARELSEKMKETGEQEIGRAVEELVQICKMKKDAQY", "values": [{"measurement": "product formation from Rd and UDP-glucose (Rb1)", "setting": "[2]", "result": "can catalyze the extension of a glucosyl at the C-20 glycosyl of Rd to generate Rb1"}, {"measurement": "product formation from Rh2 and UDP-glucose (Rg3)", "setting": "[3]", "result": "can catalyze the extension of a glucosyl at the C-3 glycosyl of Rh2 to generate Rg3"}, {"measurement": "product formation from CK and UDP-glucose (Gypenoside LXXV)", "setting": "[4]", "result": "can catalyze the extension of a glucosyl at the C-20 glycosyl to generate Gypenoside LXXV"}]}]}
